This passage reports Km results from patent US7091027B1, “Transgenic amorpha-4,11-diene synthesis” (GenoClipp Biotechnology B.V., priority 1998, dated 2006).

For the data set, the system named is T1, CC(C)=CCC/C(C)=C/CC/C(C)=C/CO[P@@](=O)(O)OP(=O)(O)O.
T1 construct: This enzyme preparation was used for the measurement of enzyme characteristics such as molecular weight and Km; from tissue; host or cells: young leaves of greenhouse-grown A. annua
Nature of the data set: Enzyme kinetics of Mono-Q purified amorphadiene synthase in the [3H]-FPP assay. In kind it is biochemical, A. annua. Particulars: other: 5- and 10-fold diluted Mono-Q eluted enzyme preparation, [3H]-FPP 0.25–100 μM, 30 min at 30° C. As to the method: During enzyme isolation and preparation of the assays, all operations were carried out on ice or at 4° C. Ten grams of frozen young leaves from greenhouse-grown A. annua were ground in a pre-chilled mortar and pestle in 40 ml of pre-chilled buffer containing 25 mM MES (pH 5.5), 20% (v/v) glycerol, 25 mM sodium ascorbate, 25 mM NaHSO3, 10 mM MgCl2 and 5 mM DTT (buffer A) slurried with 1 g polyvinylpolypyrrolidone (PVPP) and a spatula tip of purified sea sand. Ten grams of polystyrene resin (Amberlite XAD-4, Serva) were added and the slurry was stirred carefully for 10 min and then filtered through cheesecloth. The filtrate was centrifuged at 20,000 g for 20 min (pellet discarded), and then at 100,000 g for 90 min. […]
The remainder of the supernatant was added to 12.5 g DEAE anion exchanger (Whatman DE-52), which had been rinsed several times with buffer A, and stirred carefully for 10 min. […] The molecular weight was determined using size-exclusion chromatography. 200 μl of the Mono-Q eluent was loaded on a Superdex 75 (H/R10/30, Pharmacia Biotech) and eluted in the same buffer as used for Mono-Q. Enzyme activities in 0.5 ml fractions were determined as described for Mono-Q, but using undiluted eluent. […] Enzyme-kinetics were determined using 5- and 10-fold diluted Mono-Q eluted enzyme preparation and [^3H]-FPP concentrations ranging from 0.25–100 μM. […]

Chain of amorphadiene synthase (Artemisia annua) (chain, as listed by the source): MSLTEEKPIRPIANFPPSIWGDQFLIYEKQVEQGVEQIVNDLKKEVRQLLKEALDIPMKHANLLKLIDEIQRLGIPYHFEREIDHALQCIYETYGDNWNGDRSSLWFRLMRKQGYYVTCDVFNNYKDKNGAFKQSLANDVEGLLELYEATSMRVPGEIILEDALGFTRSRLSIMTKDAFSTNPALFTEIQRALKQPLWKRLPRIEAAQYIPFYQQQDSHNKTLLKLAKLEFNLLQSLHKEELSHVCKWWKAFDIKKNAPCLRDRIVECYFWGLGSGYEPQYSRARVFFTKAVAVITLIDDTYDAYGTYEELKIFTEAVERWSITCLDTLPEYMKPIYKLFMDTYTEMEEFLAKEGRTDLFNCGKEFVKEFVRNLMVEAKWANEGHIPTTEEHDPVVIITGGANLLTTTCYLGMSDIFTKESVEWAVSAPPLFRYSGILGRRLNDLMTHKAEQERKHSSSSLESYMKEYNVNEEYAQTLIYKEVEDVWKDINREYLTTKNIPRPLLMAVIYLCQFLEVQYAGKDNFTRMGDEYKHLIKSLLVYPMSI

The Km is the concentration of substrate that gives half-maximal velocity. In the case of amorphadiene synthase (Artemisia annua), the Km was found to be 0.6 µM.
